Laboratory results from patent publication US5736363A, “IGF-II analogues” (British Bio-technology Limited, priority 1991, dated 1998).

Tests used:
type 1 IGF receptor = molecular target: T1, type 1 IGF receptor (Mus musculus, UniProt Q60751); experiment: Type 1 IGF receptor binding assay on Swiss mouse 3T3 cells; details: for IC50, inhibits binding of 125I-IGF-II (type 1 IGF receptor): mutant value holds for material from either secretion or refolding route
T1 construct: endogenous in cells; host or cells: Swiss mouse 3T3 cells
Protocol: Swiss 3T3 cells at 5×10^4 cells/ml were seeded into 24 well plates at 5×10^3 cells/well in DMEM containing 10% FCS and incubated at 37°. The cells were used for assay after 5-6 days. For the binding assay, the growth medium was flicked out of the plate, and the cells washed twice with binding medium (serum free DMEM containing 25 mM HEPES, 1 mg/ml BSA and 2 mM glutamine). A further 400 μl of binding medium was added to each well along with 50 μl of sample or IGF-II standard (Bachem). Twofold dilutions of IGF-II were used for the standard curve to give final concentrations in the well from 300-1.56 ng/ml. […] The plate was incubated at room temperature for 2 hr., the assay medium removed and the cells washed four limes in PBS containing 1 mg/ml BSA and 0.1 μM KI. The plates were blotted dry and the cells solubilised for by the addition of 750 μl 0.5M NaOH containing 0.2% w/v Triton X100. After 15 min the lysed samples were transferred to tubes and the residual counts determined using a gamma counter.

type 2 IGF receptor = molecular target: T2, type 2 IGF receptor (Rattus norvegicus, UniProt G3V824); experiment: Type 2 IGF receptor binding assay on H35 (rat hepatoma) cells
T2 construct: endogenous in cells; host or cells: H35 (rat hepatoma) cells
T2 sequence (G3V824 36-2481): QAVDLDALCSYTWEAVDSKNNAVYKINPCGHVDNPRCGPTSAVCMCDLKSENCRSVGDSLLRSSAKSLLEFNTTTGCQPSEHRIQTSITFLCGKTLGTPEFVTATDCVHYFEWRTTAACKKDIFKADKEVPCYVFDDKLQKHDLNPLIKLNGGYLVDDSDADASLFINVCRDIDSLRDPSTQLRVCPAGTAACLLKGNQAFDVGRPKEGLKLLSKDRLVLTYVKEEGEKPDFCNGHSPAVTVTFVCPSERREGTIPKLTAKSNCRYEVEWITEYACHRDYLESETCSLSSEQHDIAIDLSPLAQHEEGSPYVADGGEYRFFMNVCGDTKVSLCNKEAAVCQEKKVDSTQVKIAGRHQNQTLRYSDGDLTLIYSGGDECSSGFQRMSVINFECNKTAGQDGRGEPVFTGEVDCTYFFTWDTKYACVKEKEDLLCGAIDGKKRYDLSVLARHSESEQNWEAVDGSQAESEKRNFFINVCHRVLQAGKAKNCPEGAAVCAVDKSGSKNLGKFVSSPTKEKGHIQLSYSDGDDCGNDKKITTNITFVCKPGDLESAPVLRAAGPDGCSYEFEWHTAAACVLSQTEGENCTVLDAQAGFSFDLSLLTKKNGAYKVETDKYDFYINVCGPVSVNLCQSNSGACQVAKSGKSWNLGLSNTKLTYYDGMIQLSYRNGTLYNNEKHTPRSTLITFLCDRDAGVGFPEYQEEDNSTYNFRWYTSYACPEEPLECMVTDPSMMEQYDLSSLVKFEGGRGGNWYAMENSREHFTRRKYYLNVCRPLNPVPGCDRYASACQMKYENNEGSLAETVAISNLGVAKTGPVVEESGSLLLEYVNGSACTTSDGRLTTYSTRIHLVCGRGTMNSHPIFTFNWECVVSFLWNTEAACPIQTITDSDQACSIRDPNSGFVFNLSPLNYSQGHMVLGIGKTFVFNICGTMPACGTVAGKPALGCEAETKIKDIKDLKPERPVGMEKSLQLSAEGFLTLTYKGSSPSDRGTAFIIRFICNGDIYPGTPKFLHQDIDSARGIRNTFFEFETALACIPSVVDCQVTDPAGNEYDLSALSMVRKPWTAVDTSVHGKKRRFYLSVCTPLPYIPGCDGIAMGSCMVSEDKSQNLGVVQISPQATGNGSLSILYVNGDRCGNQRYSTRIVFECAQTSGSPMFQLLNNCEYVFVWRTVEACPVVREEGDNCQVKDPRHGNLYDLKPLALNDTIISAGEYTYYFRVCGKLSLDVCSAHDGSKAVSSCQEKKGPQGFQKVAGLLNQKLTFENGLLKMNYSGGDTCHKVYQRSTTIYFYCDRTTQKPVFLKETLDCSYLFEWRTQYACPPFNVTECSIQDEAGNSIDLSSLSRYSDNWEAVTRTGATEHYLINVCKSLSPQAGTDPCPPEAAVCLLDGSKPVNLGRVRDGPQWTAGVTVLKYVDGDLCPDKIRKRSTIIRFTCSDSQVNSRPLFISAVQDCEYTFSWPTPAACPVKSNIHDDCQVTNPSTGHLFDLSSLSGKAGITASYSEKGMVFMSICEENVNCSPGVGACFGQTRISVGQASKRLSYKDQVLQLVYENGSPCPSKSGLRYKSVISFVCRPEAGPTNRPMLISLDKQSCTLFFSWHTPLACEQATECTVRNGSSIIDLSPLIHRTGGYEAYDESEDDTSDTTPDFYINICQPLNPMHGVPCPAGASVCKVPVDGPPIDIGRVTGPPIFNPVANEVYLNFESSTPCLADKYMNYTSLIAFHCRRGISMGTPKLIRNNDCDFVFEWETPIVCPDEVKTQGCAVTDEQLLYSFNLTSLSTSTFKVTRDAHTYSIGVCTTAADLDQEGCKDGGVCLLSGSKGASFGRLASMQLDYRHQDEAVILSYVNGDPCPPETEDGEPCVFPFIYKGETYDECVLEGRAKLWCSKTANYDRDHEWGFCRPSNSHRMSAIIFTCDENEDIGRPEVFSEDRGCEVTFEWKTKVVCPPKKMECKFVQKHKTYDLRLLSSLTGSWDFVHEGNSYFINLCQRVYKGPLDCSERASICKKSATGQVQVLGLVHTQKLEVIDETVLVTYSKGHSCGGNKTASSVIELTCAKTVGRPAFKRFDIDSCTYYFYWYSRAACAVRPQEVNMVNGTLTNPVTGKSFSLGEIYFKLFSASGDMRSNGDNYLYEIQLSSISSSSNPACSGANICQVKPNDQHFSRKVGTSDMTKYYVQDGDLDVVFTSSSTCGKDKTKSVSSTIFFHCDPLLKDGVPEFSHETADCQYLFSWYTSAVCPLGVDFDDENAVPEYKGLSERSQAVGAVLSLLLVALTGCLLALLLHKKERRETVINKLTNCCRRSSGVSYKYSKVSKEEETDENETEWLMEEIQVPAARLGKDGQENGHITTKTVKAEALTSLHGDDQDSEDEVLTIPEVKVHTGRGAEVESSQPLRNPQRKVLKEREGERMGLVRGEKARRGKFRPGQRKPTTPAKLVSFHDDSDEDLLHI
Protocol: Binding to the type 2 IGF receptor was assessed on H35 (rat hepatoma) cells, see FIG. 11. Cells at 5×10^5 cells/ml were seeded into 24 well plates at 5×10^4 cells/well in DMEM containing 0.5% FCS and incubated at 37°. The cells were used for assay after 2-3 days. For the binding assay, the growth medium was flicked out of the plate, and the cells washed once with binding medium (serum free DMEM containing 25 mM HEPES, 1 mg/ml BSA and 2 mM glutamine).
A further 400 μl of binding medium was added to each well along with 50 μl of sample or IGF-II standard (Bachem). Twofold dilutions of IGF-II were used for the standard curve to give final concentrations in the well from 300-1.56 ng/ml. Labelled IGF-II was then added (50 μl of […]) to give a final concentration of 2 ng/ml and a total of about 40,000 dpm per well. The plate was incubated at room temperature for 3 hr., the assay medium removed and the cells washed four times in Hanks buffered salt solution containing 1 mg/ml BSA. The plates were blotted dry and the cells solubilised for by the addition of 750 μl 10 mM Tris HCl, 5 mM EDTA, 0.2% w/v SDS. After 15 min the lysed samples were transferred to tubes and the residual counts determined using a gamma counter.

insulin receptor = molecular target: T3, insulin receptor (Rattus norvegicus, UniProt P15127); experiment: Insulin receptor binding assay on H35 cells
T3 construct: endogenous in cells; host or cells: H35 (rat hepatoma) cells
T3 sequence (P15127 27-759 limits assumed): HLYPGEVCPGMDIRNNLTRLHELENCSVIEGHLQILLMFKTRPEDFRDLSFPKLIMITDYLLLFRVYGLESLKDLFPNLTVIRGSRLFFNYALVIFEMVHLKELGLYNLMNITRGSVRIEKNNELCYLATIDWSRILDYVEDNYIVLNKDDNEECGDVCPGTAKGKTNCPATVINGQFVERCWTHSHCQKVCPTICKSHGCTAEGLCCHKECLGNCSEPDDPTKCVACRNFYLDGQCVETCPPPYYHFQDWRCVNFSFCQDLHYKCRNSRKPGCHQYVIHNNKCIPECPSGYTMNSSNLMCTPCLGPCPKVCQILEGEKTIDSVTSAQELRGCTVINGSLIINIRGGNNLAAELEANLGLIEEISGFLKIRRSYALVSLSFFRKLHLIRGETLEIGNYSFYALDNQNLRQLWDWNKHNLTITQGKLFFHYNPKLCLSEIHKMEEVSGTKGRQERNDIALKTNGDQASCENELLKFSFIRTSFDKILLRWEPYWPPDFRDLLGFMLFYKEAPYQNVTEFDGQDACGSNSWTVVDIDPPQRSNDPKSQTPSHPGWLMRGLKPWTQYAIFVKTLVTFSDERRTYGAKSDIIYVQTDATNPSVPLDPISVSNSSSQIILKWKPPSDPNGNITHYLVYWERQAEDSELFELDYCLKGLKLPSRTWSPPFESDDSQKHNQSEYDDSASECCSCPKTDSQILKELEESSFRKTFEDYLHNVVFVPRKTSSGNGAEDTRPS
T3 sequence (P15127 764-1383 partner limits assumed): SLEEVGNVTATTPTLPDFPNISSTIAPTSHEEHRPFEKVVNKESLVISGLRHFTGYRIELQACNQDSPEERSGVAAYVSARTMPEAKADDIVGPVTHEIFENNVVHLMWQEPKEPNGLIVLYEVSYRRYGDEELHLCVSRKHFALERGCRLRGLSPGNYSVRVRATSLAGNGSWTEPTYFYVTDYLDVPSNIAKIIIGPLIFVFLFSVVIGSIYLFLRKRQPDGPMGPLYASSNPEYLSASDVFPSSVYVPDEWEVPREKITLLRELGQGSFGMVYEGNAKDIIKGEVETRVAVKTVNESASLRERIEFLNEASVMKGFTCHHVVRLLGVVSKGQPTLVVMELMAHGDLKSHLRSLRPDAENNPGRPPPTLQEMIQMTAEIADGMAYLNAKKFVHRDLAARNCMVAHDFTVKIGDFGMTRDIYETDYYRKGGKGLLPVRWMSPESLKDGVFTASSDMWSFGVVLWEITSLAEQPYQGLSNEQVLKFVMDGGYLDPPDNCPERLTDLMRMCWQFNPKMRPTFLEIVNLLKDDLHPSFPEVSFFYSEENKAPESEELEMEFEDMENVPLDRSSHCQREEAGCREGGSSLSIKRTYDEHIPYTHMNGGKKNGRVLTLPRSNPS

[1] = refolded material (HRP fusion route)

Substance | affinity for the type 1 IGF receptor versus native IGF-II (type 1 IGF receptor) | IC50, inhibits binding of 125I-IGF-II (type 1 IGF receptor) (type 1 IGF receptor) [µg/mL] | affinity for the type 2 IGF receptor versus native IGF-II (type 2 IGF receptor) | IC50, inhibits binding of 125I-IGF-II (type 2 IGF receptor) (type 2 IGF receptor; [1]) [µg/mL] | IC50, inhibits binding of 125I-IGF-II (type 2 IGF receptor) (type 2 IGF receptor; secreted material) [µg/mL] | IC50, inhibits binding of 125I-insulin (insulin receptor) (insulin receptor; [1]) [µg/mL] | IC50, inhibits binding of 125I-insulin (insulin receptor) (insulin receptor; secreted material) [µg/mL] | IC50, inhibits binding of 125I-IGF-II (type 2 IGF receptor) (type 2 IGF receptor; commercial reference standard (Bachem)) [µg/mL]
IGF-II (Q^37 Q^38): IGF-II with the modifications Arg37Gln and Arg38Gln | comparable to native IGF-II | 0.21 | comparable to native IGF-II | 0.06 | 0.03 | 1.3 | 1.6 | 
wild-type standard (Bachem): recombinant IGF-II from a commercial supplier (Bachem) used as a reference standard [reference compound] |  | 0.06 |  |  |  |  |  | 0.018
wild-type refolded material: wild-type IGF-II made by the HRP fusion route and refolded [reference compound] |  | 0.1 |  | 0.03 |  | 0.16 |  | 
